Results: paper PMC5030187 (Biochemistry, 2016)

Target: the molecule itself
Assay: crystal structure

B1: Ag(I)-bound periplasmic sensor domain of E. coli histidine kinase CusS, CusS(39-187) (domain or fragment, UniProt P77485 39-187, looked up)
chain: VKVHFAEQDINDLKEISATLERVLNHPDETQARRLMTLEDIVSGYSNVLISLADSQGKTVYHSPGAPDIREFTRDAIPDKDAQGGEVYLLSGPTMMMPGHGHGHMEHSNWRMINLPVGPLVDGKPIYTLYIALSIDFHLHYINDLMNKL
For B1, the “stoichiometry N” value was 2.
